From patent US20050154189A1 (MAXYGEN, published 2005)
Numbering of substitutions follows the chain as printed.

B1: Round 2 CTLA4 A-B11-5 (ligand)
chain: ITPKSATKRVKETVMLSCDYSTSTEELTSLRIYWQKDSKMVLAILPGKVQVWPEYKNRTITDMNDNPRIVILALRLSDSGTYTCVIQKPDLKGAYKLEHLTSVRLMIRADFPVPTINDLGNPSPNIRRLICSTSGGFPRPHLYWLENGEELNATNTTLSQDPETKLYMISSELDFNMTSNHSFLCLVKYGDLTVSQTFYWQESKPTPSANQHLTWTIIIPVSAFGISVIIAVILTCLTCRNAAIRRQRRENEVEMQSCSQSP
B2: Round 2 CTLA4 A-F6-9 (ligand)
chain: B1 chain with A6V
B3: Round 2 CTLA4 A-G8-1 (ligand)
chain: B1 chain with A6V, S21N, R75P
B4: Round 1 CTLA4BP-5 (ligand)
chain: VIHVTKEVKEVATLSCGHNVSVEELAQTRIHWQKEKKMVLTMMSGDMNIWPEYKNRTIFDITNNLSIVILALRPSDEGTYECVVLKYEKDAFKREHLAEVTLSVKADFPTPSISDFEIPPSNIRRIICSTSGGFPEPHLSWLENGEELNAINTTVSQDPGTELYTVSSKLDFNMTTNHSFMCLIKYGHLRVNQTFNWNTPKQEHFPDNLLPSWAITLISVNGIFVICCLTYCFAPRCRERRRNERLRRESVRPV
notes: also called R1-5; R1 CTLA-4BP-5
B5: Round 2 CTLA4BP 2x1-c4 (ligand)
chain: B4 chain with S15P, T101M, S114T, S140F, T165A, S179N
B6: Round 2 CTLA4BP 2x4-h11 (ligand)
chain: B4 chain with H31Y, K86E, T101M, T165A, T230A, E239G
B7: Round 2 CTLA4BP 5x1-f1 (ligand)
chain: B4 chain with H18L, H31Y, Y53H, S114T, S140F, V155A, G160E, T176A, M181V, R245T
B8: Round 2 CTLA4BP 5x4-a1 (ligand)
chain: B4 chain with H31Y, Y53H, S114T, P120T, H178R, M181V
B9: Round 2 CTLA4BP 5x2-d7 (ligand)
chain: B4 chain with V4M, H18L, T101M, G160E, E162G
B10: Round 2 CTLA4BP 2x2-f1 (ligand)
chain: B4 chain with P74L, P120T, S140F, V155A, G160E, H178R, M181V
B11: Round 2 CTLA4BP 5x3-c4 (ligand)
chain: B4 chain with H31Y, H138R, S140A, L142M, N144D, V155A, G160E, H178R, M181V, L210F
B12: Round 2 CTLA4BP 2x2-f12 (ligand)
chain: B4 chain with E81G, K86E, T101M, G160E, T165A, V191A
B13: Round 1 CTLA4BP-13 (ligand)
chain: VIHVTKEVKEVATLSCGHNVSVEELAQTRIYWQKEKKMVLTMMSGDMNIWPEYKNRTIFDITNNLSIVILALRPSDEGTYECVVLKYEKDAFKREHLAEVTLSVKADFPTPSISDFEIPTSNIRRIICSTSGGFPEPHLFGLENGEEINAINTTASQDPETELYTVSSKLDFNMTPNRSFVCLIKYGHLRVNQTFNWNTPKQEHFPDNLLPSWAITLISANGIFVICCLTYCFAPRCRERKSNERLRRESVRPV
notes: also called R1-13; R1 CTLA-4BP-13
B14: Round 1 CTLA4BP-27 (ligand)
chain: B4 chain with H18L, H31Y, T101M, G160E, T176A, M181V, R245T
notes: also called R1-27; R1 CTLA-4BP-27
B15: Round 2 CTLA4BP 5x2-h11 (ligand)
chain: VIHVTKKVKEVATLSCGHNVSVEELAQTRIYWQKGKKMVLTMMSGDMNIWPECKNRTIFDITNNLSIVILALRPSDEGTYECAVLKYEKDAFKREHLAEVTLSVKADFPTPSISDFEIPTSNIRRIICSTSGGFPEPHLFWLENGEELNAINTTASQDPETELYAVSSKLDFNMTTNHSFMCLIKYGHLRVNQTFNWNTPKQEHFPDNLLPSWAITLISVNGIFVICCLTYCFAPRCRERKSNERLRRESVRPV
B16: Round 2 CTLA4BP 5x3-e8 (ligand)
chain: B4 chain with H31Y, K86E, P120T, S140F, G160E, T176A, M181V, R236G, R252C
B17: Round 2 CTLA4BP 2x1-g8 (ligand)
chain: B4 chain with I67V, S114T, H178R, M181V, R241K, R242S
B18: Round 1 CTLA4BP-11 (ligand)
chain: B4 chain with V4M, H31Y, T101M, S114T, S140F, G160E, T165A, P200T, Y231H, R252H
notes: also called R1-11; R1 CTLA-4BP-11
B19: Round 2 CTLA4BP 5x2-b7 (ligand)
chain: B4 chain with S114T, T176A, M181V, V220A
B20: Round 2 CTLA4BP 2x1-f10 (ligand)
chain: B4 chain with T101M, S114T, H138R, S140A, L142M, N144D, T165A, F224S, R252C
B21: Round 2 CTLA4BP 5x1-d7 (ligand)
chain: VIHVTKEVKEVATLSCGHNVPVEELAQTRIYWQKEKKMVLTMMSGDMNIWPEYKNRTIFDITNNLSIVILALRPSDEGTYGCVVLEYEKDAFKREHLAEVMLSVKADFPTPSITDLEIPPSNIRRIICSTSGGFPEPHLFWLENGEELNAINTTASQDPETELYAVSSKLDFNMTTNHSFMCLIKYGHLRVNQTFNWNTPKQEHFPDNLLPSWAITLISANGIFVICCLTYCFAPRCRERRRNERLRRESVHPV
B22: Round 2 CTLA4BP 5x3-c3 (ligand)
chain: B4 chain with V4M, H18P, H31Y, P120T, Y231H, R252C
B23: Round 2 CTLA4BP 5x2-f3 (ligand)
chain: B13 chain with S44P, K86R, F140S, G141W, I148L, P176T, Y231H
B24: Round 2 CTLA4BP 2x1-b12 (ligand)
chain: VIHMTKEVKEVATLSCGHNVSVEELAQTRIYWQKEKKMVLTMMSGDMNIWPEYKNRTIFDITNNLSIVILALRPSDEGTYECVALKYEKDAFKQEHLAEVTLSVKADFPTPSISDFEIPPSNIRRIICSTSGGFPEPRLAWMEDGEELNAINTTVSQDPETELYTVSSKLDFNMTANHSFMCLIKYGHLRVNQTFNWNTPKQEHFPDNLLPSWAITLISVNGIFVICCLTYCFAPRCRERRRNERLRRESVCPV
B25: Round 2 CTLA4BP 5x2-e12 (ligand)
chain: B4 chain with D46G, P120T, N152S, T165A, H178R, M181V, P200T
B26: Round 2 CTLA4BP 2x1-h12 (ligand)
chain: B4 chain with H18L, T101M, S114T, V220A, R241K, R242S, R252C

target: T1, Soluble CTLA-4-Ig (human, UniProt P16410 36-161, FITC-conjugated in the two-colour FACS assays; unlabelled and detected with FITC goat anti-human IgG in the concentration-dependent assay); assay: two-colour FACS profile on transfected cells; score of preference for CTLA-4-Ig over CD28-Ig vs WT hB7-1
T1 construct: extracellular domain; Bought from R&D Systems; also called sCTLA-4-Ig; CTLA-4-Ig Fc; not shown: Fc portion of human IgG1
T1 sequence (P16410 36-161): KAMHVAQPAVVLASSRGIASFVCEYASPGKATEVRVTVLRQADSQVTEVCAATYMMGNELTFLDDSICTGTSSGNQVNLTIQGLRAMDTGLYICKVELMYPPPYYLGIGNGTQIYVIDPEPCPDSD

Binding Score	Binder
1	B1
1	B2
1	B3
2	B4
1	B5
0	B6
1	B7
0	B8
1	B9
1	B10
1	B11
1	B12
1	B13
1	B14
1	B15
1	B16
1	B17
1	B18
1	B19
1	B20
1	B21
1	B22
0	B23
1	B24
0	B25
1	B26
